Results on 2 molecules are retold here after PMC4880191, “SUMO-Modification of the La Protein Facilitates Binding to mRNA In Vitro and in Cells”.

The data set addresses T1, La (LARP3), native (human, UniProt P05455 1-408).
T1 sequence: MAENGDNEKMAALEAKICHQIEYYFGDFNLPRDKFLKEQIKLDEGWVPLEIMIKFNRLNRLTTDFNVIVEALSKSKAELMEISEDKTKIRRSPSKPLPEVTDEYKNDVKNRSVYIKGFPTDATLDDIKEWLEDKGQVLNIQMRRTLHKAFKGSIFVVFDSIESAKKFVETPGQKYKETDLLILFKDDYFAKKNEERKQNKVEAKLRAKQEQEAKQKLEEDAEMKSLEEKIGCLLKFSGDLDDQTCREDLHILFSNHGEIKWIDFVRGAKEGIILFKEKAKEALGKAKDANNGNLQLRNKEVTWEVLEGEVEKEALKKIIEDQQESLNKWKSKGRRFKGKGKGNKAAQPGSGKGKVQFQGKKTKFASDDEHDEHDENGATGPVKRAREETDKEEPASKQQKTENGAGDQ
The experiment in a line: EMSA; most RNA (22 nM) bound at 200-400 nM La; titration 6-700 nM; L37/L22 EMSA: 1x binding buffer (from 2x: 3 mM MgCl2, 300 mM NaCl, 1 mM EDTA, 0.1% Nonidet P-40), i.e. 1.5 mM MgCl2, 150 mM NaCl, 0.5 mM EDTA, 0.05% NP-40; pH not stated; 22 nM RNA, 40 ul, 10 min at room temperature; native 10% PAGE in TBE. CCND1 EMSA as in ref 42. The note with it: protein: recombinant; tags: His6; label: 3'-Cy3; weak secondary structure. Background: A gel shift assay detects complexes by their altered migration in electrophoresis.

On to CUCCUCUGCCGCCAUGGCUCCUGUGAAAAAGCUUGUG (ssRNA) [L22 TOP RNA], for which the binding result is reported as “binds”. Take UUCCGGUCUCUUUGGCCUCGCCGGUAGAAGCAAGAUG (ssRNA) [L37 TOP RNA]: the binding result is listed as “binds”.
